Paper PMC3796545, “Protein-Protein Interactions as a Strategy towards Protein-Specific Drug Design: The Example of Ataxin-1” (PLoS ONE, 2013)

B1: L-CICp [human] / ATX1 AXH (residues A567-K689 of human ATX1) [human] (parent complex)
chain 1: VFPWHSLVPFLAPSQ
chain 2: GAMAPPTLPPYFMKGSIIQLANGELKKVEDLKTEDFIQSAEISNDLKIDSSTVERIEDSHSPGVAVIQFAVGEHRAQVSVEVLVEYPFFVFGQGWSSCCPERTSQLFDLPCSKLSVGDVCISLTLK

Variants of: B1
Assay: ITC; parent: 30 nM

Row | Variant | Kd
1 | chain 1 VFPWHSLVPFLAASQ [chain 1 P13A] | 20 nM
2 | chain 1 VFPWHSLVPALAPSQ [chain 1 F10A] | 60 nM
3 | chain 1 VFPWHSLVAFLAPSQ [chain 1 P9A] | 40 nM
4 | chain 1 VFPWHSLVPFAAPSQ [chain 1 L11A] | 50 nM
5 | chain 1 VFPWHALVPFLAPSQ [chain 1 S6A] | 10 nM
6 | chain 1 VFAWHSLVPFLAPSQ [chain 1 P3A] | 40 nM
7 | chain 1 VFPWHSLAPFLAPSQ [chain 1 V8A] | 70 nM

Next, values leading:

Row | Kd | Variant
8 | 30 nM | chain 1 VAPWHSLVPFLAPSQ [chain 1 F2A]
9 | 2600 nM | chain 1 VFPAHSLVPFLAPSQ [chain 1 W4A]
10 | 50 nM | chain 1 VFPWASLVPFLAPSQ [chain 1 H5A]
11 | 20 nM | chain 1 AFPWHSLVPFLAPSQ [chain 1 V1A]
12 | 20 nM | chain 1 VFPWHSLVPFLGPSQ [chain 1 A12G]
13 | 500 nM | chain 1 VFPWHSAVPFLAPSQ [chain 1 L7A]
